In IntAct's records for PubMed 16294310:

B1: Acyl carrier protein (Escherichia coli (strain K12)), P0A6A8 (parent)
chain: MSTIEERVKKIIGEQLGVKQEEVTNNASFVEDLGADSLDTVELVMALEEEFDTEIPDEEAEKITTVQAAIDYINGHQA
partner: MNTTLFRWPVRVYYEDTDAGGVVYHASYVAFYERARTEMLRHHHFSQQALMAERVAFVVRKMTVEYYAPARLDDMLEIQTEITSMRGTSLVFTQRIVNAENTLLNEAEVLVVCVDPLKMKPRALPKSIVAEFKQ

Variants of: B1
Settings: with ybgc_ecoli ybgC

Variant	effect of a mutation on the interaction
S37C	disrupting interaction
